± gives the half width of the 95% confidence interval.
Assays:
[1] = folding stability dG unfold from trypsin proteolysis; higher = more stable
In short: (§1)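 K50 was inferred by Bayesian fitting of sequencing counts obtained after protease digestion of designed mini-proteins. Unfolding free energy was derived by comparison with a sequence-predicted unfolded-state K50 and a shared folded-state K50, for each protease or both combined. The mini-proteins were under 80 residues, had no cysteine, were carried in a PA-tagged cDNA display construct, and were kept only if AlphaFold2 dimer inter-PAE exceeded 15.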

[2] = folding stability dG unfold from chymotrypsin proteolysis; higher = more stable
In short: as §1

[3] = folding stability dG unfold (combined trypsin and chymotrypsin); higher = more stable
In short: as §1

Q: For “SAGIKIEVEPSPGNGWYRIRIENPDLRKKLNEKFPDLKEITFPFKNPEDMPWEEMREHAIDQIKEFLPSAGG [r19_298_TrROS]”, which “folding stability dG unfold” value [1] is on record?
A: -0.197 ± 0.29 kcal/mol

Q: What about the “folding stability dG unfold” value [2] of the same sequence?
A: 1.03 ± 0.15 kcal/mol

Q: And the “folding stability dG unfold” value [3]?
A: 0.64 ± 0.24 kcal/mol

Q: What does the source list for “SAGGSAGGSRKIPIWIPPGMPPEQLEHFVRFIAGENGWKIKSVEIKDVDPANNWVKIDIEVKWSAGGSAGGS [r12_168_TrROS]”?
A: folding stability dG unfold [1]: 2.16 ± 0.094 kcal/mol; folding stability dG unfold [2]: 2.9 ± 0.093 kcal/mol; folding stability dG unfold [3]: 2.67 ± 0.11 kcal/mol

Q: Which “folding stability dG unfold” value [1] does the source give for “SAGEKIKEKIKEILKELFPDAEVEIKTLPDGTIIIKLKKDKKIIVIKKTKDGKIKIVKVMTAEELKKLSSAG [r5_852_TrROS_Hall]” here?
A: 2.15 ± 0.079 kcal/mol

Q: What about the “folding stability dG unfold” value [2] of the same sequence?
A: 1.01 ± 0.26 kcal/mol

Q: And the “folding stability dG unfold” value [3]?
A: 1.51 ± 0.29 kcal/mol

Q: Which “folding stability dG unfold” value [1] does the source give for “SAMTITVVADSAEEAERAARELAERLREALRELGIEGAEIEIKVTVLPAPPPERVLVRDPETDEWKEVPSAG [r14_475_TrROS_Hall]” here?
A: 0.184 ± 0.14 kcal/mol

Q: And the “folding stability dG unfold” value [2]?
A: 1.18 ± 0.031 kcal/mol

Q: What about the “folding stability dG unfold” value [3] of the same sequence?
A: 0.981 ± 0.11 kcal/mol

Q: For “SAGPKIELEVDPENPNVARAKVIDPANGEEIDEVEVPVTTLPDGTVLVPAKIKYKGSGKTLELPFTVEGSAG [r5_610_TrMRF]”, which “folding stability dG unfold” value [1] is on record?
A: -0.4 ± 0.44 kcal/mol

Q: What about the “folding stability dG unfold” value [2] of the same sequence?
A: 0.133 ± 0.26 kcal/mol

Q: What about the “folding stability dG unfold” value [3] of the same sequence?
A: -0.126 ± 0.28 kcal/mol

Q: For “SAGGSAGGSAGGKKYKITVPFKTKDGSGKPITSNFGKKKLEEILKKHPELKPAIEKALKKSAGGSAGGSAGG [r7_637_TrMRF]”, which “folding stability dG unfold” value [1] is on record?
A: -0.163 ± 0.33 kcal/mol

Q: What about the “folding stability dG unfold” value [2] of the same sequence?
A: 1.37 ± 0.22 kcal/mol

Q: And the “folding stability dG unfold” value [3]?
A: 0.771 ± 0.29 kcal/mol

Q: What does the source list for “SAGGMTVTVKVTEIKKIGDKYEITLKNPDGTPKTVTIDDPEVVKKITPDSEVTVTVNPDGSYTITLESAGGS [r16_2_JUSTAS]”?
A: folding stability dG unfold [1]: 3.74 ± 0.28 kcal/mol; folding stability dG unfold [2]: 3.48 ± 0.23 kcal/mol; folding stability dG unfold [3]: 3.84 ± 0.29 kcal/mol

Q: What does the source list for “SAGGSAGGSKKKVKVVKVEKLEDGSVRVLLYNEDGELVLEIEFPPGMTEEEVEELVKKLLEELSAGGSAGGS [r12_798_TrROS_Hall]”?
A: folding stability dG unfold [1]: 2.47 ± 0.1 kcal/mol; folding stability dG unfold [2]: 2.72 ± 0.13 kcal/mol; folding stability dG unfold [3]: 2.69 ± 0.13 kcal/mol

Q: With “SAGGSASEELVEEIANIIKPALEEEGIEVERVEATAVTLPDGTVVIPVRVRTKDGPEVLEFNIVILSAGGSA [r15_232_TrMRF]” as the sequence, how does the “folding stability dG unfold” value [1] read?
A: 1.1 ± 0.027 kcal/mol

Q: What about the “folding stability dG unfold” value [2] of the same sequence?
A: 1.235 ± 0.012 kcal/mol

Q: And the “folding stability dG unfold” value [3]?
A: 1.19 ± 0.038 kcal/mol

Q: What does the source list for “SAGGSAGGSAGGMPVIEIPIRPDPNGKPRSAEEIASKIKDRFGYPVKIVSVENNHITITVSAGGSAGGSAGG [r17_426_TrROS]”?
A: folding stability dG unfold [1]: 0.166 ± 0.076 kcal/mol; folding stability dG unfold [2]: 0.983 ± 0.066 kcal/mol; folding stability dG unfold [3]: 0.707 ± 0.18 kcal/mol

Q: What does the source list for “SAMLVITRPDGRPYLVRLKVDKVEPSPDGTLITVEFTLELFSPDGTPETFKGTLIFDPKTGKLVLKIDPSAG [r14_789_TrMRF]”?
A: folding stability dG unfold [1]: 2.83 ± 0.056 kcal/mol; folding stability dG unfold [2]: 3.71 ± 0.014 kcal/mol; folding stability dG unfold [3]: 3.42 ± 0.075 kcal/mol

Q: With “SAGGMSSSSYTYTTPLSSLKAAHPDLSEEELLALAKEAAKAALEAEGVPVSSVTATLAPDGTLTIVDSAGGS [r8_368_JUSTAS]” as the sequence, how does the “folding stability dG unfold” value [1] read?
A: 0.862 ± 0.065 kcal/mol

Q: And the “folding stability dG unfold” value [2]?
A: 0.634 ± 0.12 kcal/mol

Q: And the “folding stability dG unfold” value [3]?
A: 0.834 ± 0.14 kcal/mol

Q: Which results are given for “SKATVLPNGEVVVTAEATFTLPDGTKVTVRVEVRIGPDGTLRPGVTVTVEPVPPPEKPLNIDFDPVTLPKSA [r9_1168_TrMRF]”?
A: folding stability dG unfold [1]: 0.969 ± 0.13 kcal/mol; folding stability dG unfold [2]: 2.91 ± 0.21 kcal/mol; folding stability dG unfold [3]: 2.67 ± 0.33 kcal/mol

Q: Which results are given for “SMMKVKVRITFEDGEEVEIEIEMSREELKNKIEELIKELAEKEGKEVKEVKIEIVDEKTNETYTFTIKVKSA [r9_1193_TrROS_Hall]”?
A: folding stability dG unfold [1]: 4.14 ± 0.19 kcal/mol; folding stability dG unfold [2]: 3.92 ± 0.088 kcal/mol; folding stability dG unfold [3]: 3.65 ± 0.3 kcal/mol

Q: With “SMEVVEEFTLPNGTRITLTKNEDGTVTVTLETTVKNPETGKTTTKTVTITVKLEPGEEYSLEELLATLLSSA [r9_614_TrROS_Hall]” as the sequence, how does the “folding stability dG unfold” value [1] read?
A: 3.5 ± 0.12 kcal/mol

Q: And the “folding stability dG unfold” value [2]?
A: 3.77 ± 0.039 kcal/mol

Q: And the “folding stability dG unfold” value [3]?
A: 3.7 ± 0.078 kcal/mol

Q: With “PKPLIEIERLPEGVLRARAINPVTGAPITITVPVEPGVDGYRLLAEVEAENVPPELAVKTAETVLALLEKKS [r1_403_TrMRF]” as the sequence, how does the “folding stability dG unfold” value [1] read?
A: -0.115 ± 0.24 kcal/mol

Q: What about the “folding stability dG unfold” value [2] of the same sequence?
A: -0.183 ± 0.33 kcal/mol

Q: What about the “folding stability dG unfold” value [3] of the same sequence?
A: -0.0268 ± 0.26 kcal/mol

Q: For “SMSPEIVEKIRKFLEEKGYSFTVERIPETGKVIINIDVRGNGKTRRVNIVFDENDPEKGIDLIKEIIESGSA [r9_42_TrMRF]”, which “folding stability dG unfold” value [1] is on record?
A: 3.51 ± 0.1 kcal/mol

Q: What about the “folding stability dG unfold” value [2] of the same sequence?
A: 4.5 ± 0.076 kcal/mol

Q: What about the “folding stability dG unfold” value [3] of the same sequence?
A: 4.22 ± 0.085 kcal/mol

Q: For “SAGGSAGGSAGGSKKTITVTVLFKDKNGKPVYIAKAKVTLNENGEETIEITEIYPLEDLSAGGSAGGSAGGS [r4_117_TrROS_Hall]”, which “folding stability dG unfold” value [1] is on record?
A: 1.8 ± 0.12 kcal/mol

Q: And the “folding stability dG unfold” value [2]?
A: 2.36 ± 0.15 kcal/mol

Q: What about the “folding stability dG unfold” value [3] of the same sequence?
A: 2.34 ± 0.27 kcal/mol

Q: Which results are given for “SAGGSAGGSPPPDVPVDVGERVEYHPPGGVVVREYRTPEGRLIRVEIEELEGGELVRRVVLPLSAGGSAGGS [r12_264_JUSTAS]”?
A: folding stability dG unfold [1]: 1.14 ± 0.095 kcal/mol; folding stability dG unfold [2]: 1.33 ± 0.07 kcal/mol; folding stability dG unfold [3]: 1.25 ± 0.17 kcal/mol

Q: For “SAGGPPPDTTVTVTLTRTTPTQWLIEFPATGEVREIPRDPAASDEEAKELVKELAKEEGYNVNINLTSAGGS [r16_446_JUSTAS]”, which “folding stability dG unfold” value [1] is on record?
A: 1.05 ± 0.081 kcal/mol

Q: And the “folding stability dG unfold” value [2]?
A: 0.438 ± 0.29 kcal/mol

Q: And the “folding stability dG unfold” value [3]?
A: 0.812 ± 0.3 kcal/mol

Q: What does the source list for “SAGGSAGGSAGTIENVTVVGSKEFTAPGGVPTLIEYAKLPDGGTYTVTWTGDTTTTTVFPSAGGSAGGSAGG [r17_294_JUSTAS]”?
A: folding stability dG unfold [1]: 0.414 ± 0.021 kcal/mol; folding stability dG unfold [2]: 0.675 ± 0.14 kcal/mol; folding stability dG unfold [3]: 0.624 ± 0.069 kcal/mol

Q: Which results are given for “AATTATVTLPFAPDDLDAAVEAARELASTLPPDSRITVAVPAPDGSTGTVTATVHPDGTIDVTVSPAAAPAS [r1_350_TrMRF]”?
A: folding stability dG unfold [1]: 0.731 ± 0.019 kcal/mol; folding stability dG unfold [2]: 1.47 ± 0.04 kcal/mol; folding stability dG unfold [3]: 1.19 ± 0.1 kcal/mol

Q: For “SAGGLVIPVTFMFQDWEEAEEFANEIARELANLYPGRPVKIDVEVEPIRNPNNGKRYYMVEATIEIDPSAGG [r13_545_TrROS]”, which “folding stability dG unfold” value [1] is on record?
A: 2.01 ± 0.059 kcal/mol

Q: And the “folding stability dG unfold” value [2]?
A: 2.77 ± 0.033 kcal/mol

Q: What about the “folding stability dG unfold” value [3] of the same sequence?
A: 2.6 ± 0.15 kcal/mol

Q: With “SAGGSAGGSMTTKTFKLPDGRTVTVTTEKLPNGTTKTTVTITVPGTGKTTTVPASEVPADFSGSAGGSAGGS [r12_797_JUSTAS]” as the sequence, how does the “folding stability dG unfold” value [1] read?
A: 1.24 ± 0.038 kcal/mol

Q: What about the “folding stability dG unfold” value [2] of the same sequence?
A: 2.08 ± 0.025 kcal/mol

Q: What about the “folding stability dG unfold” value [3] of the same sequence?
A: 1.83 ± 0.068 kcal/mol

Q: What does the source list for “SAGGSAGGSAGGGRRLVLVKVPPDVPEEVIREFARRLVEEGVPEPVVVERLEDDYALVLVSAGGSAGGSAGG [r7_283_TrMRF]”?
A: folding stability dG unfold [1]: 0.861 ± 0.21 kcal/mol; folding stability dG unfold [2]: 1.23 ± 0.24 kcal/mol; folding stability dG unfold [3]: 1.01 ± 0.17 kcal/mol

Q: With “SAGGGMSGKAISEEEIEALIKEEAEKRGLKIEIKEITRPPGTVTVTVKITEGDSVTEKTIDFPILPEPSAGG [r13_652_JUSTAS]” as the sequence, how does the “folding stability dG unfold” value [1] read?
A: 1.54 ± 0.039 kcal/mol

Q: What about the “folding stability dG unfold” value [2] of the same sequence?
A: 1.64 ± 0.054 kcal/mol

Q: And the “folding stability dG unfold” value [3]?
A: 1.59 ± 0.06 kcal/mol

Q: With “SAGGSSSSSYTLNYPDKRVNVSVSHPPSGPLNVTITVYDPNGNKTKTITSPVGSLEKAKSLLEKLLSAGGSA [r2_82_JUSTAS]” as the sequence, how does the “folding stability dG unfold” value [1] read?
A: 1.63 ± 0.04 kcal/mol

Q: And the “folding stability dG unfold” value [2]?
A: 1.28 ± 0.062 kcal/mol

Q: And the “folding stability dG unfold” value [3]?
A: 1.45 ± 0.11 kcal/mol

Q: Which results are given for “SAGVEIKTDPSKPVITITINYTSIEEAKEYIEKLVKEIGAKEVKIKEDPNSNKITATIDLKDIKKIEKLSAG [r5_598_JUSTAS]”?
A: folding stability dG unfold [1]: -0.144 ± 0.52 kcal/mol; folding stability dG unfold [2]: 1.46 ± 0.19 kcal/mol; folding stability dG unfold [3]: 1.09 ± 0.41 kcal/mol

Q: Which “folding stability dG unfold” value [1] does the source give for “SAGGPEIVKLDFTLDPNGNLVFTFELKDGTKYEIKINPENPTIEIKEIEKIEPKPIPEDDPELLKEKSAGGS [r16_482_TrMRF]” here?
A: 1.54 ± 0.17 kcal/mol

Q: What about the “folding stability dG unfold” value [2] of the same sequence?
A: 3.24 ± 0.059 kcal/mol

Q: What about the “folding stability dG unfold” value [3] of the same sequence?
A: 2.49 ± 0.78 kcal/mol

Q: For “SAGGSAGGSAGGSWTVTKEISREGDKVYISTVTTYVNPNGTPVTETETKEISPEEVAELESAGGSAGGSAGG [r11_690_JUSTAS]”, which “folding stability dG unfold” value [1] is on record?
A: 0.964 ± 0.037 kcal/mol

Q: And the “folding stability dG unfold” value [2]?
A: 1.11 ± 0.14 kcal/mol

Q: What about the “folding stability dG unfold” value [3] of the same sequence?
A: 1.11 ± 0.11 kcal/mol

Q: What does the source list for “SAGGSAGGPSLRLTFPFPPGFSVTIELFPDGTARITIHNSDGSLLLSFSIPLPPVIPPDPSSLLSAGGSAGG [r6_238_TrMRF]”?
A: folding stability dG unfold [1]: 3.33 ± 0.17 kcal/mol; folding stability dG unfold [2]: 2.63 ± 0.084 kcal/mol; folding stability dG unfold [3]: 2.84 ± 0.38 kcal/mol
